Biological target: TEY (teneurin-2 construct: Transmembrane, EGF-like and YD-repeats; entire long form of the extracellular domain, without cytoplasmic domain) (chicken) (UniProt Q9DER5)
Assay: cell-based or functional assay

Luciferase activity (GAL4 reporter; cleavage of the BDAD-teneurin-2 fusion): 6 fold
Substance: BDAD-CTEY (GAL4 binding domain and NFkB activation domain fused to full length teneurin-2) (from UniProt P04386 1-147; Q9DER5 1-2802)

— patent US20060121483A1, “Methods for detecting teneurin signalling and related screening methods” (priority 2002, published 2006)
